B1: NR2F2 (parent)
chain: VAHVESLQEKSQCALEEYVRSQYP
B2: MNAT1 (parent)
chain: LEEALYEYQPLQIETYGPHVPELE

Variants of: B1
Assay: protein stability index of a GFP-peptide fusion (GPS, HEK-293T) (PSI 1-6); higher = more stable
Details: c terminus: a fixed tail appended
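Note: lentivirally expressed fusions sorted by FACS into six bins by GFP to DsRed ratio, PSI derived from sequencing read proportions per bin multiplied by bin number.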

| Variant | protein stability index |
| --- | --- |
| V4T | 3.59 |
| V4C | 3.81 |
| V4G | 3.94 |
| V4W | 3.28 |
| V4P | 3.54 |
| V4Y | 2.59 |
| V1I | 3.52 |
| V1E | 4.24 |
| V1S | 3.53 |
| C13D | 4.36 |
| C13T | 4.28 |
| A14P | 4.11 |
| A14D | 4.79 |
| A14Y | 3.19 |
| E17P | 3.5 |
| E17V | 2.26 |
| P24Y | 2.68 |
| P24W | 2.45 |
| E5Y | 2.13 |
| E5S | 2.53 |
| S21F | 2.56 |
| S21V | 3.34 |

| Variant | protein stability index |
| --- | --- |
| H3Y | 2.77 |
| E9Q | 2.62 |
| E9C | 1.85 |
| E9N | 3.05 |
| Q22E | 4.31 |
| Q22C | 3.19 |
| K10N | 3.98 |
| K10W | 2.96 |
| K10M | 2.97 |
| Y23L | 3.75 |
| Y23I | 3.9 |
| Y23C | 4.13 |
| A2S | 3.87 |
| A2M | 3.03 |
| A2W | 2.29 |
| A2L | 2.85 |
| Q12A | 3.33 |
| L15A | 4.75 |
| L15T | 4.91 |
| L15Y | 4.04 |
| L15M | 3.84 |
| L15D | 4.88 |

| Variant | protein stability index |
| --- | --- |
| L7S | 4.29 |
| L7A | 3.92 |
| Q8K | 3.88 |
| Q8D | 3.71 |
| Q8V | 3.02 |
| Q8W | 2.27 |
| Q8L | 2.89 |
| S6N | 3.53 |
| S11D | 4.5 |
| S11G | 4.07 |
| S11L | 3.2 |
| S11I | 2.8 |
| S11R | 3.12 |
| R20A | 3.49 |
| R20V | 3.72 |
| E16N | 3.63 |
| E16K | 3.7 |
| E16T | 3.29 |
| V19Q | 4.03 |
| Y18D | 5.05 |
| Y18G | 4.33 |
| Y18P | 4.43 |

Variants of: B2
Assay: as above
Details: c terminus: a fixed tail appended

| Variant | protein stability index |
| --- | --- |
| Q9T | 4.38 |
| Q9Y | 2.43 |
| Q9N | 2.59 |
| Q9F | 2.13 |
| Q9E | 4.38 |
| Q9P | 5.02 |
| Q9M | 2.74 |
| Q9G | 3.46 |
| Q9H | 1.87 |
| Q9C | 2.6 |
| Q9A | 2.86 |
| Q9W | 2.79 |
| Q9R | 1.88 |
| Q9K | 2.68 |
| Q9V | 3.84 |
| Q9S | 2.94 |
| Q9L | 2.7 |
| Q9D | 4.67 |
| Q9I | 3.56 |
| E7F | 1.87 |
| E7D | 3.92 |
| E7Y | 1.98 |
| E7Q | 2.28 |
| E7W | 2.1 |
| E7H | 2.11 |

| Variant | protein stability index |
| --- | --- |
| E7K | 1.87 |
| E7P | 2.71 |
| E7L | 2.25 |
| E7S | 2.76 |
| E7T | 2.68 |
| E7I | 2.44 |
| E7M | 2.19 |
| E7R | 1.73 |
| E7A | 2.19 |
| E7G | 3.53 |
| E7C | 1.92 |
| E7N | 2.73 |
| E7V | 1.73 |
| L11C | 2.99 |
| L11T | 3.99 |
| L11Y | 3.18 |
| L11K | 4.26 |
| L11D | 4.85 |
| L11P | 5.15 |
| L11V | 2.04 |
| L11R | 4.32 |
| L11Q | 4.28 |
| L11E | 4.77 |
| L11W | 4.27 |
| L11A | 4.06 |

| Variant | protein stability index |
| --- | --- |
| L11G | 5.26 |
| L11S | 4.11 |
| L11M | 3.17 |
| L11I | 2.56 |
| L11H | 4.61 |
| L11F | 4.11 |
| L11N | 4.71 |
| P10N | 4.75 |
| P10L | 3.32 |
| P10G | 4.24 |
| P10E | 4.6 |
| P10I | 2.77 |
| P10Y | 3.09 |
| P10V | 2.25 |
| P10F | 2.91 |
| P10H | 4.99 |
| P10S | 4.05 |
| P10R | 4.01 |
| P10K | 4.53 |
| P10C | 3.27 |
| P10Q | 4.43 |
| P10M | 3.85 |
| P10A | 3.89 |
| P10W | 2.63 |
| P10D | 4.33 |

| Variant | protein stability index |
| --- | --- |
| P10T | 4.1 |
| A4L | 3.57 |
| A4F | 3.1 |
| A4G | 4.4 |
| A4W | 2.96 |
| A4Q | 4.89 |
| A4P | 4.28 |
| A4H | 4.59 |
| A4Y | 3.51 |
| A4R | 4.81 |
| A4D | 4.84 |
| A4C | 3.81 |
| A4S | 4.67 |
| A4K | 4.33 |
| A4T | 4.27 |
| A4N | 4.61 |
| A4V | 1.91 |
| A4E | 4.56 |
| A4M | 3.72 |
| A4I | 2.88 |
| E3W | 1.45 |
| E3L | 2 |
| E3F | 3.39 |
| E3N | 3.67 |
| E3P | 4.05 |

| Variant | protein stability index |
| --- | --- |
| E3G | 3.41 |
| E3Y | 2.04 |
| E3D | 3.19 |
| E3A | 2.43 |
| E3Q | 3 |
| E3S | 3.63 |
| E3H | 3.16 |
| E3I | 2.13 |
| E3K | 2.64 |
| E3M | 2.19 |
| E3T | 3.16 |
| E3C | 2.42 |
| E3V | 1.74 |
| E3R | 2.79 |
| Y8S | 5.53 |
| Y8N | 5.74 |
| Y8V | 4.98 |
| Y8K | 5.14 |
| Y8Q | 5.5 |
| Y8W | 3.59 |
| Y8R | 5.44 |
| Y8C | 4.91 |
| Y8T | 5.38 |
| Y8P | 5.25 |
| Y8L | 4.75 |

| Variant | protein stability index |
| --- | --- |
| Y8H | 4.27 |
| Y8M | 4.71 |
| Y8G | 5.41 |
| Y8A | 5.3 |
| Y8E | 5.4 |
| Y8D | 5.23 |
| Y8I | 4.92 |
| Y8F | 3.75 |
| I13Q | 5.01 |
| I13A | 5.37 |
| I13E | 5.29 |
| I13M | 4.27 |
| I13G | 5.01 |
| I13H | 5.15 |
| I13N | 5.5 |
| I13K | 4.9 |
| I13T | 4.75 |
| I13R | 4.76 |
| I13F | 4.34 |
| I13D | 5.07 |
| I13C | 4.14 |
| I13S | 4.96 |
| I13P | 5.08 |
| I13L | 4.51 |
| I13Y | 4.41 |

| Variant | protein stability index |
| --- | --- |
| I13W | 3.8 |
| L5Y | 4.46 |
| L5H | 4.96 |
| L5S | 4.59 |
| L5K | 5.06 |
| L5A | 4.97 |
| L5D | 5.12 |
| L5G | 4.8 |
| L5R | 4.32 |
| L5T | 4.9 |
| L5V | 4.64 |
| L5F | 4.33 |
| L5E | 4.58 |
| L5Q | 5.38 |
| L5P | 5.19 |
| L5W | 3.89 |
| L5M | 4.64 |
| L5N | 4.81 |
| L5C | 4.71 |
| L5I | 4.87 |
| Y6C | 2.61 |
| Y6H | 3.11 |
| Y6T | 3.56 |
| Y6W | 2.39 |
| Y6R | 2.27 |

| Variant | protein stability index |
| --- | --- |
| Y6I | 2.58 |
| Y6V | 3.33 |
| Y6F | 2.8 |
| Y6Q | 2.81 |
| Y6P | 5.47 |
| Y6E | 2.74 |
| Y6D | 4.36 |
| Y6S | 2.41 |
| Y6N | 3.7 |
| Y6K | 2.46 |
| Y6M | 3 |
| Y6A | 2.3 |
| Y6L | 3.43 |
| Y6G | 3.43 |
| E2G | 2.24 |
| E2W | 2.34 |
| E2T | 2.2 |
| E2S | 2.4 |
| E2L | 2.96 |
| E2F | 1.71 |
| E2N | 2.4 |
| E2K | 2.47 |
| E2V | 2.55 |
| E2I | 2.67 |
| E2M | 2.71 |

| Variant | protein stability index |
| --- | --- |
| E2A | 2.26 |
| E2R | 3.28 |
| E2D | 3.89 |
| E2H | 1.73 |
| E2Y | 1.71 |
| E2P | 3.7 |
| E2C | 3.03 |
| E2Q | 1.71 |
| L1E | 5.1 |
| L1A | 5.28 |
| L1M | 3.18 |
| L1N | 4.72 |
| L1P | 4.88 |
| L1R | 4.12 |
| L1T | 5.14 |
| L1D | 4.8 |
| L1Y | 4.45 |
| L1W | 4 |
| L1Q | 5.08 |
| L1F | 3.81 |
| L1S | 5.15 |
| L1I | 3.45 |
| L1K | 4.81 |
| L1H | 4.98 |
| L1C | 4.72 |

| Variant | protein stability index |
| --- | --- |
| L1G | 5.15 |
| L1V | 4.15 |
| E14L | 2.01 |
| E14G | 3.31 |
| E14T | 2.32 |
| E14Q | 2.19 |
| E14K | 1.75 |
| E14M | 2.47 |
| E14N | 2.61 |
| E14W | 1.6 |
| E14S | 2.25 |
| E14R | 1.93 |
| E14C | 2.12 |
| E14P | 4.22 |
| E14V | 1.82 |
| E14A | 2.3 |
| E14I | 1.81 |
| E14H | 1.8 |
| E14Y | 1.87 |
| E14D | 2.68 |
| E14F | 2.01 |
| Q12N | 2.65 |
| Q12R | 2.27 |
| Q12S | 2.21 |
| Q12I | 2.5 |

| Variant | protein stability index |
| --- | --- |
| Q12D | 3.92 |
| Q12T | 3.19 |
| Q12A | 2.33 |
| Q12C | 2.14 |
| Q12M | 2.35 |
| Q12V | 2.46 |
| Q12W | 2.11 |
| Q12G | 2.75 |
| Q12K | 1.84 |
| Q12H | 2.5 |
| Q12P | 5.02 |
| Q12L | 2.67 |
| Q12Y | 2.01 |
| Q12E | 3.67 |
| Q12F | 2.12 |
| T15C | 2.18 |
| T15A | 1.99 |
| T15D | 4.73 |
